Data taken from publication PMC5524754, “Angiopoietin-like 4 induces a β-catenin-mediated upregulation of ID3 in fibroblasts to reduce scar collagen expression” (Scientific Reports, 2017).

Target: T1, Extracellular domain of human CDH11 (Abnova) (human, UniProt P55287 54-617)
T1 construct: cadherin-11 (CDH11), human, extracellular domain; No catalogue number is printed; also called cadherin-11; immobilized CDH11; source: bought: Abnova
T1 sequence (looked up): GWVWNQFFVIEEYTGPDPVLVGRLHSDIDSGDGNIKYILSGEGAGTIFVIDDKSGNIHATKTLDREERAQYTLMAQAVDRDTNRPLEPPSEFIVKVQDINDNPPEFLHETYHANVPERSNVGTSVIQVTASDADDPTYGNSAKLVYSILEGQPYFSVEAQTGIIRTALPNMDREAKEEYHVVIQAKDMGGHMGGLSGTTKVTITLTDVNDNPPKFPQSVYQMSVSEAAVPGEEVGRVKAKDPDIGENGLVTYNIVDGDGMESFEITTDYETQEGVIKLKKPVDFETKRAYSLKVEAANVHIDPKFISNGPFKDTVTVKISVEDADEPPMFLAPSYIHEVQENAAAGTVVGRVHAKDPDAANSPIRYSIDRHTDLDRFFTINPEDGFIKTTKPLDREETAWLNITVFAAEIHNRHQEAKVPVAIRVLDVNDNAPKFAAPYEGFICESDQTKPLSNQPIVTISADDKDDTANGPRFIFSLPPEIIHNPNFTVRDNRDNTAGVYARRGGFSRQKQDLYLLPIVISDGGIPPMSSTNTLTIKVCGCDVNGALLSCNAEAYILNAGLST
Assay: SPR; BIACore 3000; extracellular domain of human CDH11 immobilised on a CM5 chip by amine coupling; PBS running buffer; cANGPTL4 injected at 28.6, 14.3, 7.15, 3.58 and 1.79 nM, 10 uL/min; Langmuir 1:1 model
Conditions: both partners purified

Kd: 42.8 nM
B1: recombinant human cANGPTL4 (C-terminal fibrinogen-like domain of angiopoietin-like 4) (domain or fragment, UniProt Q9BY76 179-401, looked up)
chain: SRLHRLPRDCQELFQVGERQSGLFEIQPQGSPPFLVNCKMTSDGGWTVIQRRHDGSVDFNRPWEAYKAGFGDPHGEFWLGLEKVHSITGDRNSRLAVQLRDWDGNAELLQFSVHLGGEDTAYSLQLTAPVAGQLGATTVPPSGLSVPFSTWDQDHDLRRDKNCAKSLSGGWWFGTCSHSNLNGQYFRSIPQQRQKLKKGIFWKTWRGRYYPLQATTMLIQPMA
notes: angiopoietin-like 4 (ANGPTL4), human, C-terminal fibrinogen-like domain (cANGPTL4); also called recombinant cANGPTL4 protein; source: purified protein for SPR, added to fibroblast cultures and applied to wounds
